Values quoted from earlier work, collected in publication PMC9445421.
Read-outs that look alike come from different tables or passages of the source.

What was measured:
TrkB (Homo sapiens) [1] = target: TrkB (Homo sapiens) (UniProt Q16620)
TrkB (Homo sapiens) [2] = target: TrkB (Homo sapiens) (UniProt Q16620); remark: listed apart in the source

Chain of UniProt Q16620 (Q16620 32-430): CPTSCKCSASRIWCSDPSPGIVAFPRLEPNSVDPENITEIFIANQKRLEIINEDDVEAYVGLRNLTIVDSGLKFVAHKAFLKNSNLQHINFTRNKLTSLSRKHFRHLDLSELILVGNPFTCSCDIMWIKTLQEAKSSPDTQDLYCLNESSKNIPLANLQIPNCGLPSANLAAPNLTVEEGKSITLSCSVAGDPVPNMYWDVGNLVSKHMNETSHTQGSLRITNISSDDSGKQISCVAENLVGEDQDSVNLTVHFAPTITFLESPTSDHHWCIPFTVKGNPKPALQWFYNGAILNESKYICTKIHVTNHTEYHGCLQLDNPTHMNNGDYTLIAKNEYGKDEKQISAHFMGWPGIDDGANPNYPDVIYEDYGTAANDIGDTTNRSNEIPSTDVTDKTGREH

## BDNF (from UniProt P23560)
TrkB (Homo sapiens) [1]
  Kd: 0.79 nM

## NT4 (from UniProt P34130)
TrkB (Homo sapiens) [2]
  Kd: 0.26 nM
